Experimental data published in publication PMC10373554 (Journal of Virology, 2023).

Target: recombinant RBD protein of SARS-CoV (SARS-CoV (2003), strain of the bought …, UniProt P59594)
Test: SPR

B1: S2H97 (antibody, V domains shown)
VH: QVRLVQSGAEVKKSGESLKISCKGSGYSFTSYWIGWVRQMPGKGLEWMGIIYPGDSDTRYSPSFQGQVTISADKSISTVYLQWSSLKASDTAMYYCARQWSHYTYDYYYWGQGTLVTISS
VL: QSVLTQPASVSGSPGQSITISCTGISSDVGGYNSVSWYQQHPGKAPKLMIYDVTNRPSGVSNRFSGSKSGNTASLTISGLQAEDEADYYCSSYTSSSTPPYVFGTGTKVSVL
binding result: binds
